Key:
[1] = molecular target: HALOGluA2(R) (GluA2(R) subunit with HALO domain inserted between signal peptide and N-terminal domain) (rat) (UniProt P19491); assay: FRET or BRET
[2] = molecular target: HALOGluA3 (GluA3 subunit with HALO domain inserted between signal peptide and N-terminal domain) (rat) (UniProt P19492); assay: FRET or BRET
Sequence of HALOGluA3 (GluA3 subunit with HALO domain inserted between signal peptide and N-terminal domain) (rat) (P19492 23-888): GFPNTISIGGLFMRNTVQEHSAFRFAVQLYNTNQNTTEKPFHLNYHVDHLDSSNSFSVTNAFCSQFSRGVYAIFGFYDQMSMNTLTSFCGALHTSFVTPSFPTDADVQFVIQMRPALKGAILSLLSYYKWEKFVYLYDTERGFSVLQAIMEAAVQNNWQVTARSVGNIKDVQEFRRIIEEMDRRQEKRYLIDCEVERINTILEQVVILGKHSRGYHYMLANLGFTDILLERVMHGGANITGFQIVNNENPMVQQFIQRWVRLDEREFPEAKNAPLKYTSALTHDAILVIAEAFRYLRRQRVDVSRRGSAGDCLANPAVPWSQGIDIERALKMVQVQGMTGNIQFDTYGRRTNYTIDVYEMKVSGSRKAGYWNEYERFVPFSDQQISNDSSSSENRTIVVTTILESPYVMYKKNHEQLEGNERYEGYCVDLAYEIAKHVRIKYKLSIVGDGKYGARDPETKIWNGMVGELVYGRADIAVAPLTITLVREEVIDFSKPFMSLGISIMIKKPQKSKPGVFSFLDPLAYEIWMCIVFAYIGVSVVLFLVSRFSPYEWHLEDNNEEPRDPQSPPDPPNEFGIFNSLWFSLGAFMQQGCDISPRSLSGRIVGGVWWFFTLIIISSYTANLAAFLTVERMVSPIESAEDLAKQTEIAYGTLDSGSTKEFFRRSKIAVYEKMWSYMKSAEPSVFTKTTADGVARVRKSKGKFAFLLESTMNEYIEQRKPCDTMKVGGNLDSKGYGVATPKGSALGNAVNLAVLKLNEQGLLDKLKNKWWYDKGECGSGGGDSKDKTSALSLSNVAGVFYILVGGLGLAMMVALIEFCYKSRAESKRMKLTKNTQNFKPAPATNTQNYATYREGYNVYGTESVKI

Sequence of CFPGluA1 (GluA1 subunit with CFP inserted between signal peptide and N-terminal domain) (P19490 19-907): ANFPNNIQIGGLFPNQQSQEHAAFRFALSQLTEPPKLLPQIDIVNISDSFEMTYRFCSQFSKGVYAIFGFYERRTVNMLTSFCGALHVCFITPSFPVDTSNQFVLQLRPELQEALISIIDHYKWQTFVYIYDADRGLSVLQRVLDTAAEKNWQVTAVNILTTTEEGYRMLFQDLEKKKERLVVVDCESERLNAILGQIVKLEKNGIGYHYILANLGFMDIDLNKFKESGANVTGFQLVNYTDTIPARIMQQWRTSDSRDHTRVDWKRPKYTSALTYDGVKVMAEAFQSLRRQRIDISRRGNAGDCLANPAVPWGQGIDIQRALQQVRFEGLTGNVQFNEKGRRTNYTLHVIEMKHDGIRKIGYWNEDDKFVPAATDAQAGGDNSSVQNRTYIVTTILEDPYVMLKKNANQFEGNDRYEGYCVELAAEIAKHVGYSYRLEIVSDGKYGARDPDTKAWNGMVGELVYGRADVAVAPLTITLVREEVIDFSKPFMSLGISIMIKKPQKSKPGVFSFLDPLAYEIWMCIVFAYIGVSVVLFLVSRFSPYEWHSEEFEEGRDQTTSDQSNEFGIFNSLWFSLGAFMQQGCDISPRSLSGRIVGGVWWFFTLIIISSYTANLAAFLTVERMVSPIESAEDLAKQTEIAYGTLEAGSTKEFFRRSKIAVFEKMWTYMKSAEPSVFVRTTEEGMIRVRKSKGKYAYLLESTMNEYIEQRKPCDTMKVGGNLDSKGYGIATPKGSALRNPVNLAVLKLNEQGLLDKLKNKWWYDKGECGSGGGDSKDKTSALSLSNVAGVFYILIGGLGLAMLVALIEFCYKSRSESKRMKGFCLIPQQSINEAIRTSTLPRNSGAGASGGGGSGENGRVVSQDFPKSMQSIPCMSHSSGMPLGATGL
Sequence of HALOGluA2(R) (GluA2(R) subunit with HALO domain inserted between signal peptide and N-terminal domain) (rat) (P19491 22-883): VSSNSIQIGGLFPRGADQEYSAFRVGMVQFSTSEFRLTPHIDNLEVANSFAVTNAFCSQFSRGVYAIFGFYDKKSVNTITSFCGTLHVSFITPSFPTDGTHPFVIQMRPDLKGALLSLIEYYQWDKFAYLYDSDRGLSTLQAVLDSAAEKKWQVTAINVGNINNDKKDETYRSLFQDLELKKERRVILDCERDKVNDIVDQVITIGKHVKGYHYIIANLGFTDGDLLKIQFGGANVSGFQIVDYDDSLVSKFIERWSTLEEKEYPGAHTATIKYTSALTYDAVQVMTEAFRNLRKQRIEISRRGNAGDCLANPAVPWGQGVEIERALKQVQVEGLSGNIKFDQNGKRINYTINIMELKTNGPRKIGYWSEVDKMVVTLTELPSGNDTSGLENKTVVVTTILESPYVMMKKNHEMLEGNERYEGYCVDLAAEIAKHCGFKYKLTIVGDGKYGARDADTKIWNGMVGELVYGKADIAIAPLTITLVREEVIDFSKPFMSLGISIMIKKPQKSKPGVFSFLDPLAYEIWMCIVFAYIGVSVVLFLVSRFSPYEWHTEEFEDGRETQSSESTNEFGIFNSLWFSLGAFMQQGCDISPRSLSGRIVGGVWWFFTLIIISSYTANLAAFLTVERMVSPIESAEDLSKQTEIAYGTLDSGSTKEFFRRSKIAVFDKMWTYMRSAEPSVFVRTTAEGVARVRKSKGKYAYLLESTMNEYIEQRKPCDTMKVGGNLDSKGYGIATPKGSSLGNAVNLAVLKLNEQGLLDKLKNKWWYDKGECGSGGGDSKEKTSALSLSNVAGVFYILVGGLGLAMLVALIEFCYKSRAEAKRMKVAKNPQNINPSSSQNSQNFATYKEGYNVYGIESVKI
Sequence of CFPGluA2(R) (GluA2(R) subunit with CFP inserted between signal peptide and N-terminal domain) (P19491 22-883): as above

Row | CFP (donor) lifetime mean in the presence of the acceptor AF488 [1] | E FRET [1] [%] | CFP (donor) lifetime mean in the presence of the acceptor AF488 [2] | E FRET [2] [%] | Substance
1 | 2.03 | 38.5 |  |  | CFPGluA1 (GluA1 subunit with CFP inserted between signal peptide and N-terminal domain) (from UniProt P19490 19-907) (receptor)
2 |  |  | 2.51 | 27 | CFPGluA2(R) (GluA2(R) subunit with CFP inserted between signal peptide and N-terminal domain) (from UniProt P19491 22-883) (receptor)

Source: article doi:10.64898/2025.12.17.694835
